Source: publication PMC11574045, “A cofactor-induced repressive type of transcription factor condensation can be induced by synthetic peptides to suppress tumorigenesis” (The EMBO Journal, 2024)

B1: RXRA (protein, UniProt P19793 1-462, looked up)
Retinoic acid receptor …: MDTKHFLPLDFSTQVNSSLTSPTGRGSMAAPSLHPSLGPGIGSPGQLHSPISTLSSPINGMGPPFSVISSPMGPHSMSVPTTPTLGFSTGSPQLSSPMNPVSSSEDIKPPLGLNGVLKVPAHPSGNMASFTKHICAICGDRSSGKHYGVYSCEGCKGFFKRTVRKDLTYTCRDNKDCLIDKRQRNRCQYCRYQKCLAMGMKREAVQEERQRGKDRNENEVESTSSANEDMPVERILEAELAVEPKTETYVEANMGLNPSSPNDPVTNICQAADKQLFTLVEWAKRIPHFSELPLDDQVILLRAGWNELLIASFSHRSIAVKDGILLATGLHVHRNSAHSAGVGAIFDRVLTELVSKMRDMQMDKTELGCLRAIVLFNPDSKGLSNPAEVEALREKVYASLEAYCKHKYPEQPGRFAKLLLRLPALRSIGLKCLEHLFFFKLIGDTPIDTFLMEMLEAPHQMT
B2: ROG (protein, UniProt Q9Y2Y4 1-487, looked up)
Zinc finger and BTB …: MSLPPIRLPSPYGSDRLVQLAARLRPALCDTLITVGSQEFPAHSLVLAGVSQQLGRRGQWALGEGISPSTFAQLLNFVYGESVELQPGELRPLQEAARALGVQSLEEACWRARGDRAKKPDPGLKKHQEEPEKPSRNPERELGDPGEKQKPEQVSRTGGREQEMLHKHSPPRGRPEMAGATQEAQQEQTRSKEKRLQAPVGQRGADGKHGVLTWLRENPGGSEESLRKLPGPLPPAGSLQTSVTPRPSWAEAPWLVGGQPALWSILLMPPRYGIPFYHSTPTTGAWQEVWREQRIPLSLNAPKGLWSQNQLASSSPTPGSLPQGPAQLSPGEMEESDQGHTGALATCAGHEDKAGCPPRPHPPPAPPARSRPYACSVCGKRFSLKHQMETHYRVHTGEKPFSCSLCPQRSRDFSAMTKHLRTHGAAPYRCSLCGAGCPSLASMQAHMRGHSPSQLPPGWTIRSTFLYSSSRPSRPSTSPCCPSSSTT
B3: BATF3 (protein, UniProt Q9NR55 1-127, looked up)
Basic leucine zipper …: MSQGLPAAGSVLQRSVAAPGNQPQPQPQQQSPEDDDRKVRRREKNRVAAQRSRKKQTQKADKLHEEYESLEQENTMLRREIGKLTEELKHLTEALKEHEKMCPLLLCPMNFVPVPPRPDPVAGCLPR
B4: RXRG (protein, UniProt P48443 1-463, looked up)
Retinoic acid receptor …: MYGNYSHFMKFPAGYGGSPGHTGSTSMSPSAALSTGKPMDSHPSYTDTPVSAPRTLSAVGTPLNALGSPYRVITSAMGPPSGALAAPPGINLVAPPSSQLNVVNSVSSSEDIKPLPGLPGIGNMNYPSTSPGSLVKHICAICGDRSSGKHYGVYSCEGCKGFFKRTIRKDLIYTCRDNKDCLIDKRQRNRCQYCRYQKCLVMGMKREAVQEERQRSRERAESEAECATSGHEDMPVERILEAELAVEPKTESYGDMNMENSTNDPVTNICHAADKQLFTLVEWAKRIPHFSDLTLEDQVILLRAGWNELLIASFSHRSVSVQDGILLATGLHVHRSSAHSAGVGSIFDRVLTELVSKMKDMQMDKSELGCLRAIVLFNPDAKGLSNPSEVETLREKVYATLEAYTKQKYPEQPGRFAKLLLRLPALRSIGLKCLEHLFFFKLIGDTPIDTFLMEMLETPLQIT
B5: RUNX3 (protein, UniProt Q13761 1-415, looked up)
Runt-related transcription …: MRIPVDPSTSRRFTPPSPAFPCGGGGGKMGENSGALSAQAAVGPGGRARPEVRSMVDVLADHAGELVRTDSPNFLCSVLPSHWRCNKTLPVAFKVVALGDVPDGTVVTVMAGNDENYSAELRNASAVMKNQVARFNDLRFVGRSGRGKSFTLTITVFTNPTQVATYHRAIKVTVDGPREPRRHRQKLEDQTKPFPDRFGDLERLRMRVTPSTPSPRGSLSTTSHFSSQPQTPIQGTSELNPFSDPRQFDRSFPTLPTLTESRFPDPRMHYPGAMSAAFPYSATPSGTSISSLSVAGMPATSRFHHTYLPPPYPGAPQNQSGPFQANPSPYHLYYGTSSGSYQFSMVAGSSSGGDRSPTRMLASCTSSAASVAAGNLMNPSLGGQSDGVEADGSHSNSPTALSTPGRMDEAVWRPY
B6: RNF14 (protein, UniProt Q9UBS8 1-474, looked up)
E3 ubiquitin-protein ligase …: MSSEDREAQEDELLALASIYDGDEFRKAESVQGGETRIYLDLPQNFKIFVSGNSNECLQNSGFEYTICFLPPLVLNFELPPDYPSSSPPSFTLSGKWLSPTQLSALCKHLDNLWEEHRGSVVLFAWMQFLKEETLAYLNIVSPFELKIGSQKKVQRRTAQASPNTELDFGGAAGSDVDQEEIVDERAVQDVESLSNLIQEILDFDQAQQIKCFNSKLFLCSICFCEKLGSECMYFLECRHVYCKACLKDYFEIQIRDGQVQCLNCPEPKCPSVATPGQVKELVEAELFARYDRLLLQSSLDLMADVVYCPRPCCQLPVMQEPGCTMGICSSCNFAFCTLCRLTYHGVSPCKVTAEKLMDLRNEYLQADEANKRLLDQRYGKRVIQKALEEMESKEWLEKNSKSCPCCGTPIEKLDGCNKMTCTGCMQYFCWICMGSLSRANPYKHFNDPGSPCFNRLFYAVDVDDDIWEDEVED
B7: RNF2 (protein, UniProt Q99496 2-336, looked up)
E3 ubiquitin-protein ligase …: SQAVQTNGTQPLSKTWELSLYELQRTPQEAITDGLEIVVSPRSLHSELMCPICLDMLKNTMTTKECLHRFCADCIITALRSGNKECPTCRKKLVSKRSLRPDPNFDALISKIYPSRDEYEAHQERVLARINKHNNQQALSHSIEEGLKIQAMNRLQRGKKQQIENGSGAEDNGDSSHCSNASTHSNQEAGPSNKRTKTSDDSGLELDNNNAAMAIDPVMDGASEIELVFRPHPTLMEKDDSAQTRYIKTSGNATVDHLSKYLAVRLALEELRSKGESNQMNLDTASEKQYTIYIATASGQFTVLNGSFSLELVSEKYWKVNKPMELYYAPTKEHK
B8: R-LIM (protein, UniProt Q9NVW2 1-624, looked up)
E3 ubiquitin-protein ligase …: MENSDSNDKGSGDQSAAQRRSQMDRLDREEAFYQFVNNLSEEDYRLMRDNNLLGTPGESTEEELLRRLQQIKEGPPPQNSDENRGGDSSDDVSNGDSIIDWLNSVRQTGNTTRSGQRGNQSWRAVSRTNPNSGDFRFSLEINVNRNNGSQNSENENEPSARRSSGENVENNSQRQVENPRSESTSARPSRSERNSTEALTEVPPTRGQRRARSRSPDHRRTRARAERSRSPLHPMSEIPRRSHHSISSQTFEHPLVNETEGSSRTRHHVTLRQQISGPELLSRGLFAASGTRNASQGAGSSDTAASGESTGSGQRPPTIVLDLQVRRVRPGEYRQRDSIASRTRSRSQTPNNTVTYESERGGFRRTFSRSERAGVRTYVSTIRIPIRRILNTGLSETTSVAIQTMLRQIMTGFGELSYFMYSDSDSEPTGSVSNRNMERAESRSGRGGSGGGSSSGSSSSSSSSSSSSSSSSSSSSPSSSSGGESSETSSDLFEGSNEGSSSSGSSGARREGRHRAPVTFDESGSLPFLSLAQFFLLNEDDDDQPRGLTKEQIDNLAMRSFGENDALKTCSVCITEYTEGNKLRKLPCSHEYHVHCIDRWLSENSTCPICRRAVLASGNRESVV
B9: RSF1 (protein, UniProt Q96T23 1-1441, looked up)
Remodeling and spacing factor …: MATAAAAAAVMAPPGCPGSCPNFAVVCSFLERYGPLLDLPELPFPELERVLQAPPPDVGNGEVPKELVELHLKLMRKIGKSVTADRWEKYLIKICQEFNSTWAWEMEKKGYLEMSVECKLALLKYLCECQFDDNLKFKNIINEEDADTMRLQPIGRDKDGLMYWYQLDQDHNVRMYIEEQDDQDGSSWKCIVRNRNELAETLALLKAQIDPVLLKNSSQQDNSSRESPSLEDEETKKEEETPKQEEQKESEKMKSEEQPMDLENRSTANVLEETTVKKEKEDEKELVKLPVIVKLEKPLPENEEKKIIKEESDSFKENVKPIKVEVKECRADPKDTKSSMEKPVAQEPERIEFGGNIKSSHEITEKSTEETEKLKNDQQAKIPLKKREIKLSDDFDSPVKGPLCKSVTPTKEFLKDEIKQEEETCKRISTITALGHEGKQLVNGEVSDERVAPNFKTEPIETKFYETKEESYSPSKDRNIITEGNGTESLNSVITSMKTGELEKETAPLRKDADSSISVLEIHSQKAQIEEPDPPEMETSLDSSEMAKDLSSKTALSSTESCTMKGEEKSPKTKKDKRPPILECLEKLEKSKKTFLDKDAQRLSPIPEEVPKSTLESEKPGSPEAAETSPPSNIIDHCEKLASEKEVVECQSTSTVGGQSVKKVDLETLKEDSEFTKVEMDNLDNAQTSGIEEPSETKGSMQKSKFKYKLVPEEETTASENTEITSERQKEGIKLTIRISSRKKKPDSPPKVLEPENKQEKTEKEEEKTNVGRTLRRSPRISRPTAKVAEIRDQKADKKRGEGEDEVEEESTALQKTDKKEILKKSEKDTNSKVSKVKPKGKVRWTGSRTRGRWKYSSNDESEGSGSEKSSAASEEEEEKESEEAILADDDEPCKKCGLPNHPELILLCDSCDSGYHTACLRPPLMIIPDGEWFCPPCQHKLLCEKLEEQLQDLDVALKKKERAERRKERLVYVGISIENIIPPQEPDFSEDQEEKKKDSKKSKANLLERRSTRTRKCISYRFDEFDEAIDEAIEDDIKEADGGGVGRGKDISTITGHRGKDISTILDEERKENKRPQRAAAARRKKRRRLNDLDSDSNLDEEESEDEFKISDGSQDEFVVSDENPDESEEDPPSNDDSDTDFCSRRLRRHPSRPMRQSRRLRRKTPKKKYSDDDEEEESEENSRDSESDFSDDFSDDFVETRRRRSRRNQKRQINYKEDSESDGSQKSLRRGKEIRRVHKRRLSSSESEESYLSKNSEDDELAKESKRSVRKRGRSTDEYSEADEEEEEEEGKPSRKRLHRIETDEEESCDNAHGDANQPARDSQPRVLPSEQESTKKPYRIESDEEEDFENVGKVGSPLDYSLVDLPSTNGQSPGKAIENLIGKPTEKSQTPKDNSTASASLASNGTSGGQEAGAPEEEEDELLRVTDLVDYVCNSEQL
B10: RNF6 (protein, UniProt Q9Y252 1-685, looked up)
E3 ubiquitin-protein ligase …: MNQSRSRSDGGSEETLPQDHNHHENERRWQQERLHREEAYYQFINELNDEDYRLMRDHNLLGTPGEITSEELQQRLDGVKEQLASQPDLRDGTNYRDSEVPRESSHEDSLLEWLNTFRRTGNATRSGQNGNQTWRAVSRTNPNNGEFRFSLEIHVNHENRGFEIHGEDYTDIPLSDSNRDHTANRQQRSTSPVARRTRSQTSVNFNGSSSNIPRTRLASRGQNPAEGSFSTLGRLRNGIGGAAGIPRANASRTNFSSHTNQSGGSELRQREGQRFGAAHVWENGARSNVTVRNTNQRLEPIRLRSTSNSRSRSPIQRQSGTVYHNSQRESRPVQQTTRRSVRRRGRTRVFLEQDRERERRGTAYTPFSNSRLVSRITVEEGEESSRSSTAVRRHPTITLDLQVRRIRPGENRDRDSIANRTRSRVGLAENTVTIESNSGGFRRTISRLERSGIRTYVSTITVPLRRISENELVEPSSVALRSILRQIMTGFGELSSLMEADSESELQRNGQHLPDMHSELSNLGTDNNRSQHREGSSQDRQAQGDSTEMHGENETTQPHTRNSDSRGGRQLRNPNNLVETGTLPILRLAHFFLLNESDDDDRIRGLTKEQIDNLSTRHYEHNSIDSELGKICSVCISDYVTGNKLRQLPCMHEFHIHCIDRWLSENCTCPICRQPVLGSNIANNG

System: HEK293FT cells transfected with TF library
Assay: Screening of TF condensates based on fluorescent puncta
Assay type: cell-based
Details: Figure 1B numerical data; TF library screen, one value per transcriptional factor
How it was run: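 Puncta scoring used automated confocal imaging of fifty random fields per well, after anti-Flag or anti-GAL4 immunofluorescence (Alexa 488) in PFA-fixed cells. HEK293FT cells carried TF library plasmids delivered with PEI (1.6 μg/ml DNA). At 60 h they were switched for 12 h to glucose-containing or glucose-free medium.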

Row | Molecule | Z score of condensed fraction
1 | B1 | -0.874
2 | B2 | -0.6823
3 | B3 | -0.4698
4 | B4 | 0.0107
5 | B5 | -0.4732
6 | B6 | 0.4543
7 | B7 | -0.7099
8 | B8 | -0.6236
9 | B9 | -1.08
10 | B10 | -1.108
